B1: ActRIIB(20-134)-hFc (Fc fusion, not shown: a dimerising Fc or GST)
chain: GRGEAETRECIYYNANWELERTNQSGLERCEGEQDKRLHCYASWRNSSGTIELVKKGCWLDDFNCYDRQECVATEENPQVYFCCCEGNFCNERFTHLPEAGGPEVTYEPPPTAPT
notes: The residue range comes from the construct name; also called full-length counterpart ActRIIB(20-134)-hFc

Test in all cases: Biacore, steady-state affinity fit
For orientation: SPR reads the build-up and loss of mass on a sensor chip optically.

One experiment deals with T1, Activin A (UniProt P08476 311-426).
T1 sequence (looked up): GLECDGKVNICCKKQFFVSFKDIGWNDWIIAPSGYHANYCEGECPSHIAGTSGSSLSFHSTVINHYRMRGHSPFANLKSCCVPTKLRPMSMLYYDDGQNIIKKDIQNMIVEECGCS
The text has this: (§1) Kd values were obtained by steady-state affinity fit due to very rapid association and dissociation of the complex, which prevented accurate determination of kₒₙ and koff.

Another experiment concerns the target T2, Activin B (UniProt P09529 293-407).
T2 sequence (looked up): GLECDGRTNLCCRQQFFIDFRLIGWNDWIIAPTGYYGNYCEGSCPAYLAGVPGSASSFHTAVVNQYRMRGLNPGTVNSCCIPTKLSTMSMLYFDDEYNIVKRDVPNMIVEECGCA
Description: as §1

The target in the experiment “ActRIIB(20-134)-hFc” is B1.
Description: as §1

The term Kd denotes the concentration at which binding is half-saturated. Low readings indicate higher affinity, high ones lower affinity.

Consider B1, for which the Kd stood at 0.016 nM in the experiment with Activin A and 0.012 nM in the experiment with Activin B.

B2: Growth and Differentiation Factor-11 (GDF11) (ligand, UniProt O95390 299-407, looked up)
chain: NLGLDCDEHSSESRCCRYPLTVDFEAFGWDWIIAPKRYKANYCSGQCEYMFMQKYPHTHLVQQANPRGSAGPCCTPTKMSPINMLYFNDKQQIIYGKIPGMVVDRCGCS
notes: also called BMP11
With B2, the Kd in the experiment with ActRIIB(20-134)-hFc is 0.036 nM.

(Values after patent US20100316644A1 (ACCELERON PHARMA, published 2010).)
